{"source": "the RNAGym collection of RNA variant scans (doi:10.1093/nar/gkz1192)", "parents": {"B1": {"name": "CPEB3 Ribozyme (parent)", "chain": "UAACAGGGGGCCACAGCAGAAGCGUUCACGUCGCAGCCCCUGUCAGAUUCUGGUGAAUCUGCGAAUUCUGCUGUAUAUCUC"}}, "data": [{"variants_of": "B1", "experiment": "self-cleavage, relative activity (ratio to wild type); higher = more cleavage; in vitro, sequencing", "method_in_brief": "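CPEB3 self-cleaving ribozyme mutant libraries were made by rounds of error-prone PCR, barcoded, and transcribed in vitro with T7 RNA polymerase for 5 hours at 37°C. Cleavage occurred during transcription and a 15 min DNase I step before EDTA stop. RNAs were reverse transcribed with template switching and Illumina-sequenced, with DNA sequencing mapping barcodes to variants. Relative activity is the variant's cleaved/total read fraction divided by wild type's (minimum 5 reads), averaged across three batches.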", "values": [{"variant": "G52A U72G", "self-cleavage": 0.94}, {"variant": "G52A U72C", "self-cleavage": 1.21}, {"variant": "U51G U58C", "self-cleavage": 0.37}, {"variant": "U51C A57U", "self-cleavage": 0.44}, {"variant": "U51C A57C", "self-cleavage": 0.44}, {"variant": "U51C A57G", "self-cleavage": 0.91}, {"variant": "U51C U74G", "self-cleavage": 1.21}, {"variant": "U51C U74C", "self-cleavage": 1.21}, {"variant": "U51C U74A", "self-cleavage": 1.3}, {"variant": "G53C G55A", "self-cleavage": 0.98}, {"variant": "U51C U72G", "self-cleavage": 0.88}, {"variant": "U51C U72A", "self-cleavage": 0.75}, {"variant": "U51C U72C", "self-cleavage": 1.01}, {"variant": "G52C A65U", "self-cleavage": 0.32}, {"variant": "G52C A65G", "self-cleavage": 0.49}, {"variant": "U51G A64G", "self-cleavage": 0.85}, {"variant": "U51G A64U", "self-cleavage": 0.52}, {"variant": "G52U U69C", "self-cleavage": 0.73}, {"variant": "G52U U69A", "self-cleavage": 0.72}, {"variant": "U51A G53A", "self-cleavage": 1.27}, {"variant": "G52A A56U", "self-cleavage": 1.14}, {"variant": "G52A A56G", "self-cleavage": 1.19}, {"variant": "G52U C68U", "self-cleavage": 1.19}, {"variant": "G52A U74C", "self-cleavage": 1.26}, {"variant": "U51G U78C", "self-cleavage": 0.97}, {"variant": "U51G G63U", "self-cleavage": 1.1}, {"variant": "U51G G63A", "self-cleavage": 0.98}, {"variant": "G52C U80A", "self-cleavage": 1.22}, {"variant": "G52C U80C", "self-cleavage": 1.2}, {"variant": "G52C A64G", "self-cleavage": 1.04}, {"variant": "U51C A65U", "self-cleavage": 0.27}, {"variant": "U51C A65G", "self-cleavage": 0.56}, {"variant": "G52A G53A", "self-cleavage": 1.13}, {"variant": "U51A G63A", "self-cleavage": 1}, {"variant": "U51A G63U", "self-cleavage": 1.15}, {"variant": "G52U A64G", "self-cleavage": 1.08}, {"variant": "G52U A64U", "self-cleavage": 0.39}, {"variant": "U51A C62G", "self-cleavage": 0.23}, {"variant": "U51A C62U", "self-cleavage": 0.25}, {"variant": "G53A U66C", "self-cleavage": 0.53}, {"variant": "U51C U66C", "self-cleavage": 0.49}, {"variant": "U51C U66A", "self-cleavage": 0.65}, {"variant": "U51G C62U", "self-cleavage": 0.24}, {"variant": "G52A U66A", "self-cleavage": 0.66}, {"variant": "G52A U66G", "self-cleavage": 0.76}, {"variant": "G52A U58A", "self-cleavage": 0.5}, {"variant": "G52A U58C", "self-cleavage": 0.68}, {"variant": "G52A U58G", "self-cleavage": 0.34}, {"variant": "G53U U58C", "self-cleavage": 1.08}, {"variant": "U51C U78C", "self-cleavage": 0.99}, {"variant": "U51C U78A", "self-cleavage": 1.02}, {"variant": "G52A U76G", "self-cleavage": 1.15}, {"variant": "G52A U76C", "self-cleavage": 1.06}, {"variant": "G53A A65G", "self-cleavage": 0.52}, {"variant": "G53A A65U", "self-cleavage": 0.22}, {"variant": "G53A A75C", "self-cleavage": 1.18}, {"variant": "U51G", "self-cleavage": 0.99}, {"variant": "U51C", "self-cleavage": 1.04}, {"variant": "G53C A75G", "self-cleavage": 1.16}, {"variant": "G53C A75U", "self-cleavage": 1.12}, {"variant": "G52C G61C", "self-cleavage": 0.34}, {"variant": "U51G G70A", "self-cleavage": 0.69}, {"variant": "U51A U74C", "self-cleavage": 1.21}, {"variant": "U51A U74A", "self-cleavage": 1.29}, {"variant": "G52C U74A", "self-cleavage": 1.28}, {"variant": "G52U U78C", "self-cleavage": 1.08}, {"variant": "U51A U80C", "self-cleavage": 1}, {"variant": "U51A U80A", "self-cleavage": 1.07}, {"variant": "U51A U80G", "self-cleavage": 1.18}, {"variant": "U51C C62G", "self-cleavage": 0.39}, {"variant": "U51C C62U", "self-cleavage": 0.31}, {"variant": "U51C C62A", "self-cleavage": 0.31}, {"variant": "U51C C71U", "self-cleavage": 0.62}, {"variant": "U51C C71A", "self-cleavage": 0.53}, {"variant": "G52C C68U", "self-cleavage": 1.18}, {"variant": "G53A G70A", "self-cleavage": 0.62}, {"variant": "G53A G70U", "self-cleavage": 0.44}, {"variant": "U51G U67C", "self-cleavage": 0.17}, {"variant": "U51G U67A", "self-cleavage": 0.43}, {"variant": "U51A U58A", "self-cleavage": 0.3}, {"variant": "U51A U58C", "self-cleavage": 0.54}, {"variant": "G53A A56U", "self-cleavage": 0.79}, {"variant": "G53A A56G", "self-cleavage": 1}, {"variant": "G53A C59A", "self-cleavage": 0.58}, {"variant": "G53A C59U", "self-cleavage": 1.07}, {"variant": "G52A A65G", "self-cleavage": 0.53}, {"variant": "G52A U78C", "self-cleavage": 1.13}, {"variant": "G52A U78A", "self-cleavage": 1.19}, {"variant": "G52U U74C", "self-cleavage": 1.28}, {"variant": "G52U U74A", "self-cleavage": 1.26}, {"variant": "G53A U78C", "self-cleavage": 1.06}, {"variant": "G53U U69C", "self-cleavage": 0.59}, {"variant": "G52U", "self-cleavage": 1.13}, {"variant": "G52C", "self-cleavage": 1.05}, {"variant": "G52A", "self-cleavage": 1.14}, {"variant": "U51C U69A", "self-cleavage": 0.7}, {"variant": "U51C U69G", "self-cleavage": 0.56}, {"variant": "U51C U69C", "self-cleavage": 0.6}, {"variant": "U51C U67G", "self-cleavage": 0.38}, {"variant": "U51C U67A", "self-cleavage": 0.56}, {"variant": "U51C U67C", "self-cleavage": 0.4}, {"variant": "U51G U60A", "self-cleavage": 0.78}, {"variant": "U51G U60C", "self-cleavage": 0.39}, {"variant": "G53C U78C", "self-cleavage": 1.08}, {"variant": "G53A A64U", "self-cleavage": 0.48}, {"variant": "G53A A64G", "self-cleavage": 0.98}, {"variant": "U51A G61A", "self-cleavage": 1.01}, {"variant": "U51G U69C", "self-cleavage": 0.62}, {"variant": "U51G U69G", "self-cleavage": 0.49}, {"variant": "U51A C81A", "self-cleavage": 1.1}, {"variant": "G52A A64G", "self-cleavage": 1.03}, {"variant": "G53U U66G", "self-cleavage": 0.66}, {"variant": "G53A U80A", "self-cleavage": 1.18}, {"variant": "G53A U80C", "self-cleavage": 1.17}, {"variant": "G52A A57G", "self-cleavage": 0.99}, {"variant": "G52A U69A", "self-cleavage": 0.84}, {"variant": "G52A U69C", "self-cleavage": 0.62}, {"variant": "G52A U69G", "self-cleavage": 0.98}, {"variant": "U51C G73A", "self-cleavage": 1.24}, {"variant": "U51G U76A", "self-cleavage": 1.19}, {"variant": "U51G U76C", "self-cleavage": 1.17}, {"variant": "U51A U72A", "self-cleavage": 0.69}, {"variant": "U51A U72C", "self-cleavage": 1.15}, {"variant": "U51A U72G", "self-cleavage": 0.91}, {"variant": "G53U A65U", "self-cleavage": 0.25}, {"variant": "G53U A65G", "self-cleavage": 0.61}, {"variant": "U51A U76A", "self-cleavage": 1.09}, {"variant": "U51A U76G", "self-cleavage": 1.09}, {"variant": "U51A U76C", "self-cleavage": 1.11}, {"variant": "G53A U60A", "self-cleavage": 0.68}, {"variant": "G53A U60C", "self-cleavage": 0.69}, {"variant": "G52A U67A", "self-cleavage": 0.51}, {"variant": "G52A A77U", "self-cleavage": 0.98}, {"variant": "U51G U72C", "self-cleavage": 0.95}, {"variant": "U51G U72A", "self-cleavage": 0.91}, {"variant": "U51G U72G", "self-cleavage": 0.57}, {"variant": "U51G A75U", "self-cleavage": 1.22}, {"variant": "U51G A75G", "self-cleavage": 0.89}, {"variant": "G53C U58C", "self-cleavage": 0.68}, {"variant": "U51G A65G", "self-cleavage": 0.72}, {"variant": "U51A U78C", "self-cleavage": 0.83}, {"variant": "U51A U78G", "self-cleavage": 1.04}, {"variant": "U51A U78A", "self-cleavage": 1}, {"variant": "U51C C81U", "self-cleavage": 1.15}, {"variant": "U51C C81A", "self-cleavage": 1.18}, {"variant": "U51A C68U", "self-cleavage": 1.04}, {"variant": "U51A C68A", "self-cleavage": 0.4}, {"variant": "U51G U74A", "self-cleavage": 1.14}, {"variant": "U51C U58C", "self-cleavage": 0.37}, {"variant": "U51C U58A", "self-cleavage": 0.25}, {"variant": "G53A", "self-cleavage": 1.13}, {"variant": "G53C", "self-cleavage": 1.13}, {"variant": "G53U", "self-cleavage": 1.21}, {"variant": "G53A C79A", "self-cleavage": 1.22}, {"variant": "G53A C79U", "self-cleavage": 1.18}, {"variant": "U51G C81A", "self-cleavage": 1.25}, {"variant": "G52C G70U", "self-cleavage": 0.53}, {"variant": "U51C A77C", "self-cleavage": 0.98}, {"variant": "U51C A77U", "self-cleavage": 0.95}, {"variant": "U51C A77G", "self-cleavage": 1.08}, {"variant": "U51C G61C", "self-cleavage": 0.25}, {"variant": "U51C G61A", "self-cleavage": 0.71}, {"variant": "U51A U67C", "self-cleavage": 0.4}, {"variant": "U51A U67A", "self-cleavage": 0.59}, {"variant": "U51A U67G", "self-cleavage": 0.43}, {"variant": "G53C U72C", "self-cleavage": 1.21}, {"variant": "G53C U72A", "self-cleavage": 1.19}]}]}
